This is an account of results in the DeepSol protein solubility set.

The nature of this data set: soluble on expression in E. coli; label from the status in PepcDB or PDB records.
Regarding “AVAQQLRAESDFEQLPDDVAISANIADIEEKRGFTSHFVFVIEVKTKGGSKYLIYRRYRQFHALQSKLEERFGPDSKSSALACTLPTLPAKVYVGVKQEIAEMRIPALNAYMKSLLSLPVWVLMDEDVRIFFYQSPYDSEQVP”, the “soluble on expression in E. coli” value is recorded as “soluble”.

As to “AVFNYALMPSLQQFNKILAHELNLVLDEDGPLKSDAPLRRQLLERLGVTVHSINSEKAVEFNHAMSIDLMSEEMTQELGSPTEVRLLLGSESYILWMHIEKLPNSIIRIPLSELQEEDFAPLFR”, the “soluble on expression in E. coli” value is given as “not soluble”. Take “AVTIPPARHAEPQRWIARLPGFKISENKAQALWELAGKNIEGLQTDKALPTDWQAWRSEPQNAALLENLKTFFAQMPSEDEAAQGSDGIN”: the “soluble on expression in E. coli” value is “not soluble”.

With “AWQVNTAYTAGQLVTYNGKTYKCLQPHTSLAGWEPSNVPALWQLQ”, the “soluble on expression in E. coli” value is “soluble”.

Consider “CGVGFIAAIDGKPRRSVVEKGIEALKAVWHRGAVDADGKTGDGAGIHVAVPQKFFKDHVKVIGHRAPDNKLAVGQVFLPRISLDAQEACRCIVETEILAFGYYIYGWRQVPINVDIIGEKANATRPEIEQIIVGNNKGVSDEQFELDLYIIRRRIEKAVKGEQINDFYICSLSARSIIYKGMFLAEQLTTFYPDLLDERFESDFAIYHQRYSTNTFPTWPLAQPFRMLAHNGEINTVKGNVNWMKAHETRMEHPAFGTHMQDLKPVIGVGLSDSGSLDTVFEVMVRAGRTAPMVKMMLVPQALTSSQTTPDNHKALIQYCNSVMEPWDGPAALAMTDGRWVVGGMDRNGLRPMRYTITTDGLIIGGSETGMVKIDETQVIEKGRLGPGEMIAVDLQSGKLYRDRELKDHLATLKPWDKWVQNTTHLDELVKTASLKGEPSDMDKAELRRRQQAFGLTMEDMELILHPMVEDGKEAIGSMGDDSPIAVLSDKYRGLHHFFRQNFSQVTNPPIDSLRERRVMSLKTRLGNLGNILDEDETQTRLLQLESPVLTTAEFRAMRDYMGDTAAEIDATFPVDGGPEALRDALRRIRQETEDAVRGGATHVILTDEAMGPARAAIPAILATGAVHTHLIRSNLRTFTSLNVRTAEGLDTHYFAVLIGVGATTVNAYLAQEAIAERHRRGLFGSMPLEKGMANYKKAIDDGLLKIMSKMGISVISSYRGGGNFEAIGLSRALVAEHFPAMVSRISGIGLNGIQKKVLEQHATAYNEEVVALPVGGFYRFRKSGDRHGWEGGVIHTLQQAVTNDSYTTFKKYSEQVNKRPPMQLRDLLELRSTKAPVPVDEVESITAIRKRFITPGMSMGALSPEAHGTLNVAMNRIGAKSDSGEGGEDPARFRPDKNGDNWNSAIKQVASGRFGVTAEYLNQCRELEIKVAQGAKPGEGGQLPGFKVTEMIARLRHSTPGVMLISPPPHHDIYSIEDLAQLIYDLKQINPDAKVTVKLVSRSGIGTIAAGVAKANADIILISGNSGGTGASPQTSIKFAGLPWEMGLSEVHQVLTLNRLRHRVRLRTDGGLKTGRDIVIAAMLGAEEFGIGTASLIAMGCIMVRQCHSNTCPVGVCVQDDKLRQKFVGTPEKVVNLFTFLAEEVREILAGLGFRSLNEVIGRTDLLHQVSRGAEHLDDLDLNPRLAQVDPGENARYCTLQGRNEVPDTLDARIVADARPLFEEGEKMQLAYNARNTQRAIGTRLSSMVTRKFGMFGLQPGHITIRLRGTAGQSLGAFAVQGIKLEVMGDANDYVGKGLSGGTIVVRPTTSSPLETNKNTIIGNTVLYGATAGKLFAAGQAGERFAVRNSGATVVVEGCGSNGCEYMTGGTAVILGRVGDNFAAGMTGGMAYVYDLDDSLPLYINDESVIFQRIEVGHYESQLKHLIEEHVTETQSRFAAEILNDWAREVTKFWQVVPKEMLNRLEVPVHLPKAISAE”, for which the “soluble on expression in E. coli” value is “soluble”.

Consider “CHAINAAGKKVLIVYAHQEPKSFNGSLKNVAVDELSRQGCTVTVSDLYAMNFEPRATDKDITGTLSNPEVFNYGVETHEAYKQRSLASDITDEQKKVREADLVIFQFPLYWFSVPAILKGWMDRVLCQGFAFDIPGFYDSGLLQGKLALLSVTTGGTAEMYTKTGVNGDSRYFLWPLQHGTLHFCGFKVLAPQISFAPEIASEEERKGMVAAWSQRLQTIWKEEPIPCTAHWHFGQ”, for which the “soluble on expression in E. coli” value is listed as “soluble”. Take “CHEASAIGMKDTIGVGKGTVIFDDFEEADAIFVIGQNPGTNHPRMLEPLREAVKRGAQVICLNPLKERGLERFQNPQMPIEMLSNGSEPTNTAYLRPALGGDMAVFRGIAKFLLQWEREALQNGGKAVFDREFIKQHTIGIDEYLAEVDATSWEHIAEQSGLDLSEIEMVASMYRRAERVIMCWAMGLTQHRHSVPTIKEVANVQMLRGNVGKPGAGLSPVRGHSNVQGDRTMGIDEKPSDLLLDRIESRFNFD”: the “soluble on expression in E. coli” value is “not soluble”. In the case of “CPRMGHVFPLETRPYNQGSRLTAYELVYDKIPSTLITDSSIAYRIRTSPIPIKAAFVGADRIVRNGDTANKIGTLQLAVICKQFGIKFFVVAPKTTIDNVTETGDDIIVEERNPEEFKVVTGTVINPENGSLILNESGEPITGKVGIAPLEINVWNPAFDITPHELIDGIITEEGVFTKNSSGEFQLESLF” it was “soluble”. In the case of “CSEVNVVKERPKTDEHKSYSCSFKGCTDVELVAVICPYCEKNFCLRHRHQSDHDCEKLEVAKPRMAATQKLVR” it was “soluble”. As to “CSPVRERRLEHQLEPGDTLAGLALKYGVTMEQIKRANRLYTNDSIFLKKTLYIPILTEPRDLFN”, the “soluble on expression in E. coli” value was “soluble”. In the case of “DAGQANDDALRVALQFKPVADFSPYSDDAVLNLRMGAVETLVTLDEDGKPKPVLAEKWEMKDDRTAVLTLRKDVSFHDGSKLTGEVVKNALDHALSATTRPKGLGKADLKVEATGESEVTITAPEADPILVQRLTDPGAAILSKDAYAGENPDPFNHGTGPFKLVKKESDGSVSAEAFADYWNGTPETSALKVSFIEDGAARANAFRAGDFDVIKGVPVVALPELSDAHVTDVHLPRATLLHLNAEKGVFADAKLRTAVAGAIKTDAIVDKIYEGKANKTEGSLFNLDAQWAQKAKPLAGAPADATIGKGKTVRLATWDSRAELPETANLIADQLRALGFNVDITVADYASLENRLLDGSFDAVIGSRSYMIGAGDPVAFLDTDFTCDGSYNLSRLCDPEIDKKIAAAKSEKDLDTRHKD” it was “not soluble”; in that of DCYCRIPACIAGEAAYGTCIYQGALWAFCC, “soluble”; in that of “DEAWLTEMLKRVNVLPEALVLTQAANESAWGTSRFATQANNLFGQWCYKQGCGIVPAQRAAGKTHEVQKFDSVQQSIHGYFMNVNRNPAYADLRDIRAMLADKHKNLFSVATASELTHGLLSYSERGIAYVNDLRSMIRHNNAYWTQ”, “not soluble”. The value for “DELCVVCGDKATGYHYRCITCEGCKGFFRRTIQKNLHPSYSCKYEGKCVIDKVTRNQCQECRFKKCIYVGMATDLVLDDSKRLAKRKLIEENREKRRREELEK” was “soluble”; that for “DELLALASIYDGDEFRKAESVQGGETRIYLDLPQNFKIFVSGNSNECLQNSGFEYTICFLPPLVLNFELPPDYPSSSPPSFTLSGKWLSPTQLSALCKHLDNLWEEHRGSVVLFAWMQFLKEETLAYLRIRLLTKPERKLSWLLPPLSNN” was “not soluble”; that for “DESSKNGLMDMVSQGLNAESSPLTELLTSQLPVSTEQAAGGSSALIALAQSQLSQQNSTELQSLIPGLSNLKGAQSLLGNIESLSAVQSAFN” was “not soluble”.

Consider “DHSARPKLGIDLQGGTRVTLVPQGQNPTEDQLAQAKSILENRVNGMGVSGASVVSDGNTLVITVPGEDTTQARALGQTSQLLFRPVAKPDAPDTTKLLDAMKEMANRWVEVGVLTPQEANDALSNTAKALAQSEGKKPEDAKAPTVTAKEPKEPANSIESEQLRNKVLEVMKKDRQSTDATTQLSASSLLKCDDTPDPLQGTDDPTKPLVACDPSSGQVYVLSPAPLLQGETDQANGKRLTGNEIDTNRPITGGLNPQTGQMEIGFSFKSDNGDQGSATWAKLTQEYLQKQVAITLDSK”, for which the “soluble on expression in E. coli” value is on record as “not soluble”. The value for “DILLTQSPAILSVSPGERVSFSCRASQSIGTDIHWYQQRTNGSPRLLIKYASESISGIPSRFSGSGSGTDFTLSINSVESEDIANYYCQQSNRWPFTFGSGTKLEIKRADAAPTVSIFPPSSEQLTSGGASVVCFLNNFYPKDINVKWKIDGSERQNGVLNSWTDQDSKDSTYSMSSTLTLTKDEYERHNSYTCEATHKTSTSPIVKSFNRN” was “soluble”; that for “DITGIATGYRDLDHMTTGLHEEELIILAARPAVGKTAFALNIAQNIGTKLDKTVAIFSLEMGAESLVDRMLAAEGLVESHSIRTGQLTDEEWQKYTIAQGNLANASIYIDDTPGIRITEIRSRSRKLAQETGNLGLILIDYLQLITGTGRENRQQEVSEISRQLKILAKELKVPVIALSQLSRGVEQRQDKRPVLSDI” was “not soluble”. Take “DKPLSNMKILTLGKLSRNKDEVKAMIEKLGGKLTGTANKASLCISTKKEVEKMNKKMEEVKEANIRVVSEDFLQDVSASTKSLQELFLAHILSSWGAEVK”: the “soluble on expression in E. coli” value was “soluble”. The value for “DLKDPIKISIPRYVLCGQGKDAHFEFEVKITVLDETWTVFRRYSRFREMHKTLKLKYAELAALEFPPKKLFGNKDERVIAERRSHLEKYLRDFFSVMLQSATSPLHINKVGLTLSKHTICEFSPFFKKGVFDYS” was “soluble”.

On to “DNAVGPPASAPPPPSVPVAKALSRTLAPTAEFTGFLAAPETVELRSRVGGTLDAISVPEGRLVSRGQLLFQIDPRPFEVALDTAVAQLRQAEVLARQAQADFDRIQRLVASGAVSRKNADDVTATRNARQAQMQSAKAAVAAARLELSWTRITAPIAGRVDRILVTRGNLVSGGVAGNATLLTTIVSHNPMYVYFDIDEATWLKALRHTRSDKNPPVVNMGLTTDNGLPYQGVLDFMGNQMNRSTGTIRARAVIPDPDGMLSPGLFARISLPIGEPRETVLIDDLAVSADQGKNYVLIVGKENQVEYRPVELGQMVD”, for which the “soluble on expression in E. coli” value is “not soluble”.

For the sequence “DNYNVEGASASFAVGYERGVKQLAEGLLLSIYAELDWAAFRSVSDKRSLPFSDDSAQNRFRFLAGAGVHKRLNPNIELYARGAVGASFFPENNGSSSRELKGGFNVSLRVGLSCSLRDNFAVFIDTGTSDIVRGGLALMW”, the “soluble on expression in E. coli” value was “not soluble”. The value for “DPQPDPLQPDVYLLVNARAAHTNGEESINMDAEDFEDRVHSLAMLVFDSNTGEKVAEHFSSSIGSGTSTYVFTVKLKPGQRD” was “not soluble”; that for “DRKQQERELTETNSVLSSVLDNMPVGILIEDADRTITTANKKLLDILDVSLTPSGLIGCEYAEIAETLKTQFADPDQFNETVNKIHSTRDAVFDEELLMADGRILARSYVSYSLPDGTGNIWLYRDIT” was “not soluble”; that for “DTILCFGDCRPLHKEAKRWAKSKGIRFLAFEEGYLRPQFITVEEGGVNAYSSLPRDPDFYRKLPDMPAPHVENLKPSTMKRIGHAMWYYLMGWHYRHEFPRYRHHKSFSPWYEARCWVRAYWRKQLYKVTQRKVLPRLMNELDQRYYLAVLQVYNDSQIRNHSNYNDVRDYINEVMYSFSRKAPKESYLVIKHHPMDRGHRLYRPLIKRLSKEYGLDERVIYVHDLPMPELLRHAKAVVTINSTAGISALIHNKPLKVMGNALYDIKGLTYQGHLHQFWQADFKPDMKLFKKFRGYLLVKTQVNGGYY” was “not soluble”.
